According to patent US20160194407A1 (AstraZeneca / MedImmune, published 2016):
Changes are numbered by the printed parent chain.

Key:
human CD73 N185G = molecular target: T1, human CD73 N185G (human, UniProt P21589 27-553, N185G); assay: SPR ProteOn, His-tagged CD73 variant on HTG chip, 2:1 fit
T1 sequence: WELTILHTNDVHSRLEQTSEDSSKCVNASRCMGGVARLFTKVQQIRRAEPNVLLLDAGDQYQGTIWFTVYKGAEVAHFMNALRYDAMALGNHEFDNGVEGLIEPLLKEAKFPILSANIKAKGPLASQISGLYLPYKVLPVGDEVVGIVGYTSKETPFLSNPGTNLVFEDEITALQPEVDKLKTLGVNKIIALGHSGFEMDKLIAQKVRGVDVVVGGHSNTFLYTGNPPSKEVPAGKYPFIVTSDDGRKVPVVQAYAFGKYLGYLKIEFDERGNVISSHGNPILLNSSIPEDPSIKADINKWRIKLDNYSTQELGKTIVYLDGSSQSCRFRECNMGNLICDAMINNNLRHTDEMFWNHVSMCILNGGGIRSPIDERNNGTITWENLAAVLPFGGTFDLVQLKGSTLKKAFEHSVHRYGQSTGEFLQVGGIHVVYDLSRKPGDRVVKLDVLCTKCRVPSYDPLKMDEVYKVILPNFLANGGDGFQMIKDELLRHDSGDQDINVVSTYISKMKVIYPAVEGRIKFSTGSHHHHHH

human CD73 K180A + N185G = molecular target: T2, human CD73 K180A + N185G (human, UniProt P21589 27-553, K180A; N185G); assay: SPR ProteOn, CD73 variant on HTG chip
T2 sequence: T1 sequence with K180A

CD73 chimera KO_Nterm = molecular target: T3, CD73 chimera KO_Nterm (chicken (Gallus gallus); human); assay: SPR ProteOn, CD73 variant on HTG chip
T3 construct: Human limits converted from mature numbering (+26); also called N-terminal domain-swapped CD73
T3 chain: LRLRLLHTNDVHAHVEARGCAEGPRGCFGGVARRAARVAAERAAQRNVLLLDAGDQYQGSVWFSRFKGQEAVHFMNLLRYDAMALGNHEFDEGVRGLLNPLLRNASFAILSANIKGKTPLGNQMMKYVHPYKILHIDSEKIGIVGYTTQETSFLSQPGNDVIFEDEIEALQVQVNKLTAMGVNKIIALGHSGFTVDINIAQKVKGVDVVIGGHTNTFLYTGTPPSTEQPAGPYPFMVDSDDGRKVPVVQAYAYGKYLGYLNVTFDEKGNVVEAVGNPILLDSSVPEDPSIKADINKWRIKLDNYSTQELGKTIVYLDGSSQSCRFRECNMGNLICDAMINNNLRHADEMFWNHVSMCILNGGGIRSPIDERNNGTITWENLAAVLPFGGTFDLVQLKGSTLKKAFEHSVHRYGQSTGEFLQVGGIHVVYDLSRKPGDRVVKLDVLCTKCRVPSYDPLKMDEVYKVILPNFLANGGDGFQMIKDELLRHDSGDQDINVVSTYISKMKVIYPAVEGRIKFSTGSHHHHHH

B1: MEDI9447 (antibody, V domains shown)
VH: EVQLLESGGGLVQPGGSLRLSCAASGFTFSSYAYSWVRQAPGKGLEWVSAISGSGGRTYYADSVKGRFTISRDNSKNTLYLQMNSLRAEDTAVYYCARLGYGRVDEWGRGTLVTVSS
VL: QSVLTQPPSASGTPGQRVTISCSGSLSNIGRNPVNWYQQLPGTAPKLLIYLDNLRLSGVPDRFSGSKSGTSASLAISGLQSEDEADYYCATWDDSHPGWTFGGGTKLTVL
notes: also called clone 10.3 antibody; 73combo3
- koff (human CD73 N185G): 0.000245 s⁻¹
- kon (human CD73 N185G): 9.11e+06 M⁻¹ s⁻¹
- binding result (human CD73 K180A + N185G): no binding
- binding result (CD73 chimera KO_Nterm): no binding (tested: 5 nM to 0.3 nM)
